Results reported in article PMC7954794, “Protein context shapes the specificity of SH3 domain-mediated interactions in vivo” (Nature Communications, 2021).

System: growth of yeast strains under 51 stress conditions
Test: Growth assays in 51 stress conditions (Fig. 1E-F, S2D, S5B)
Format: cell-based, Saccharomyces cerevisiae
Design: key to Growth (Fig. S2D) / growth of ABP1 SH3-swapped strains in stress condition: log2 colony size, average of median per strain (growth score)
Conditions: for Growth (Fig. S2D): ABP1 SH3-swapped strains
Protocol: All WT, SH3-deleted, KO (except for CDC25 which is the only essential SH3-containing gene in yeast), ABP1 SH3-swapped, and SLA1 SH3-shuffled strains were grown on omnitrays in 1536 formats and robotically manipulated with a pin tool (the DHFR F[1,2] bait strains were used except for the KO strains). Each strain was randomly positioned in 6 replicates per plate and two plates per condition were performed, for 12 replicates per strain in total. A border of two rows and two columns of WT strains (BY4741) around the plate was used to remove border effects. Strains were grown on YPD media for two days at 30 °C. They were then replicated on 51 different media that are described in the Supplementary Table 3 and were incubated at 37 °C in a spImager custom platform with images acquired every two hours for four days. The colony sizes from plate pictures were also measured with the R package “Gitter” and the output was manually inspected. Positions with an abnormality in colony circularity were removed. The colony sizes after 74 h of incubation at 37 °C were log2 transformed and used for the analyses. First, the differences between the two plate replicates were corrected to remove plate effects. The median colony size was calculated for each strain per plate. Strains with a difference in their median colony size of more than two between the two plate replicates were removed. Finally, the average of the median colony size was calculated for each strain per condition (growth score).

B1: ABP1: yeast SH3-containing protein; SH3-deleted (D) or gene-deleted (KO) strain (protein, UniProt P15891 2-592, looked up)
Actin-binding protein: ALEPIDYTTHSREIDAEYLKIVRGSDPDTTWLIISPNAKKEYEPESTGSSFHDFLQLFDETKVQYGLARVSPPGSDVEKIIIIGWCPDSAPLKTRASFAANFAAVANNLFKGYHVQVTARDEDDLDENELLMKISNAAGARYSIQTSSKQQGKASTPPVKKSFTPSKSPAPVSKKEPVKTPSPAPAAKISSRVNDNNDDDDWNEPELKERDFDQAPLKPNQSSYKPIGKIDLQKVIAEEKAKEDPRLVQKPTAAGSKIDPSSDIANLKNESKLKRDSEFNSFLGTTKPPSMTESSLKNDDDKVIKGFRNEKSPAQLWAERKAKQNSGNAETKAEAPKPEVPEDEPEGEPDVKDLKSKFEGLAASEKEEEEMENKFAPPPKKSEPTIISPKPFSKPQEPVKAEEAEQPKTDYKKIGNPLPGMHIEADNEEEPEENDDDWDDDEDEAAQPPLPSRNVASGAPVQKEEPEQEEIAPSLPSRNSIPAPKQEEAPEQAPEEEIEEEAEEAAPQLPSRSSAAPPPPPRRATPEKKPKENPWATAEYDYDAAEDNELTFVENDKIINIEFVDDDWWLGELEKDGSKGLFPSNYVSLGN
size (colony size) (Abp1 SH3 swaps (FigS2D), SC pH6, Plate 1, Time 74, Rep 1, one colony): 2065
relative_to_wt, D_minus_WT (Bathophenanthroline 0.1uM, D = SH3 deletion (all SH3s deleted for multi-SH3 proteins), log2 colony size, 74 h at 37 °C, n = 12): 0.05618
relative_to_wt, KO_minus_WT (Bathophenanthroline 0.1uM, KO = gene deletion, log2 colony size, 74 h at 37 °C, n = 12): -0.004019
Growth (Fig. S2D) (Bathophenanthroline.0.1uM): 10.7819
Growth (Fig. S2D) (Bathophenanthroline.10uM): 10.707
Growth (Fig. S2D) (Bathophenanthroline.1uM): 10.7137
Growth (Fig. S2D) (CaCl2.100mM): 10.7891
Growth (Fig. S2D) (CaCl2.250mM): 10.7489
Growth (Fig. S2D) (CaCl2.500mM): 10.224
Growth (Fig. S2D) (Caffein.10mM): 10.0464
Growth (Fig. S2D) (CdCl2.10uM): 10.9024
Growth (Fig. S2D) (CdCl2.50uM): 10.1243
Growth (Fig. S2D) (CuSO4.1mM): 10.685
Growth (Fig. S2D) (CuSO4.5mM): 8.504
Growth (Fig. S2D) (Cycloheximide.0.05.uM): 11.0798
Growth (Fig. S2D) (Cycloheximide.0.2.uM): 10.7165
Growth (Fig. S2D) (Cycloheximide.0.5.uM): 10.6015
Growth (Fig. S2D) (DMSO.2.): 11.0276
Growth (Fig. S2D) (DMSO.6.): 10.032
Growth (Fig. S2D) (DMSO.8.): 9.2108
Growth (Fig. S2D) (Ethanol.2.): 10.8119
Growth (Fig. S2D) (Ethanol.6.): 10.4593
Growth (Fig. S2D) (Ethanol.8.): 10.4305
Growth (Fig. S2D) (Galactose.2.): 10.8275
Growth (Fig. S2D) (Glycerol.2.): 10.3524
Growth (Fig. S2D) (Hydroxyurea.25mM): 10.8959
Growth (Fig. S2D) (Hygromycin.190uM): 10.9986
Growth (Fig. S2D) (Hygromycin.19uM): 10.9797
Growth (Fig. S2D) (Hygromycin.95uM): 11.0235
Growth (Fig. S2D) (MMS.0.004.): 10.9969
Growth (Fig. S2D) (MMS.0.02.): 10.8642
Growth (Fig. S2D) (MMS.0.04.): 10.3851
Growth (Fig. S2D) (Menadione.100uM): 10.5759
Growth (Fig. S2D) (Menadione.200uM): 10.5046
Growth (Fig. S2D) (Menadione.50uM): 10.8116
Growth (Fig. S2D) (NaCl.0.25M): 10.7355
Growth (Fig. S2D) (NaCl.1M): 10.3236
Growth (Fig. S2D) (Nitroquinoline.10uM): 10.7675
Growth (Fig. S2D) (Nitroquinoline.50uM): 10.7265
Growth (Fig. S2D) (Nystatin.0.01uM): 11.043
Growth (Fig. S2D) (Nystatin.0.1uM): 11.0609
Growth (Fig. S2D) (Raffinose.2.): 10.9185
Growth (Fig. S2D) (Rapamycin.10nM): 10.1065
Growth (Fig. S2D) (Rapamycin.50nM): 9.408
Growth (Fig. S2D) (SC.pH3): 10.3986
Growth (Fig. S2D) (SC.pH6): 11.0415
Growth (Fig. S2D) (SDS.0.01.): 10.9914
Growth (Fig. S2D) (SDS.0.02.): 10.9706
Growth (Fig. S2D) (SDS.0.05.): 10.8264
Growth (Fig. S2D) (Sorbitol.10mM): 10.9836
Growth (Fig. S2D) (Sorbitol.1mM): 10.9924
Growth (Fig. S2D) (Sorbitol.5mM): 10.9128
